Assay results taken from patent US20070286806A1, “Methods and Compositions for Modulating a Steroid Receptor” (Mount Sinai Hospital, priority 2004, published 2007).

T1: progesterone receptor isoform B (PRB), full length (Homo sapiens (Human), UniProt P06401 1-933)
T1 construct: From expression vector pSG5 PRB; expressed in 293T or SHM cells, or translated in rabbit reticulocyte lysate with ^35S methionine for the GST pulldown; also called ^35S-labeled PRB; full length PR
T1 sequence: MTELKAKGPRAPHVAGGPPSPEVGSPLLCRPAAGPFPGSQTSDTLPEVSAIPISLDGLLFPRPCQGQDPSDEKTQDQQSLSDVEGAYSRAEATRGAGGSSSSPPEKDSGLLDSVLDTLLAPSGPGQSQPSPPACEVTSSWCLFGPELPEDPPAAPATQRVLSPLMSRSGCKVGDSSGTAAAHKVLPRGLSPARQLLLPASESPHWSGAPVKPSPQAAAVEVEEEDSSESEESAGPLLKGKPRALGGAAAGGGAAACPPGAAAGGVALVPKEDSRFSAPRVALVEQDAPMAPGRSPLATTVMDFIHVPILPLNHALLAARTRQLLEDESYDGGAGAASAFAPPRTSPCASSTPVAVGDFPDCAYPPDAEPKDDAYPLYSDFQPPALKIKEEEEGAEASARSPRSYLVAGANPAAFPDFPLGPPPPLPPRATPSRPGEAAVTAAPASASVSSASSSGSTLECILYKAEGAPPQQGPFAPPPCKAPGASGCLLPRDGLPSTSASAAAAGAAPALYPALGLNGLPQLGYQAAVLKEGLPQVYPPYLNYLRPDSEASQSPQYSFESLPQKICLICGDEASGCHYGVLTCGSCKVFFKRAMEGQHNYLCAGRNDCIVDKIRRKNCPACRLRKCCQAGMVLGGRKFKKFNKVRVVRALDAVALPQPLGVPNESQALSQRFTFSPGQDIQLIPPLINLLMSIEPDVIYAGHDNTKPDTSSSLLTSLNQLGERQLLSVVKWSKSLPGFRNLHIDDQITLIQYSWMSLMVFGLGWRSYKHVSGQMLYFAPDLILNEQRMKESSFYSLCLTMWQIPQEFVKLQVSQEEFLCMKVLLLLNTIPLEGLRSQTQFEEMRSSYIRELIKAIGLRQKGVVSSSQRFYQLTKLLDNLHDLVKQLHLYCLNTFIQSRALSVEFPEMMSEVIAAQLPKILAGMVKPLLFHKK


Experiments:
[1] = molecular target: T1, progesterone receptor isoform B (PRB), …; experiment: summary of Example 1; in vivo and in vitro protein interaction assays
G5-Luc reporter = experiment: Mammalian two-hybrid system with G5-Luc reporter; format: cell-based, Syrian hamster; details: SHM cells
Procedure: FIG. 2. PSF interacts with PR in vivo. (A) 293T cells were transient transfected with an expression vector for PRB and/or His-PSF for 18 hours, followed by lysis in NETN buffer with NaCl at 150 mM. Whole cell lysate (WCL) was incubated with PR antibody (C-20, Santa Cruz) or anti-His tag antibody (H-15, Santa Cruz), using protein A/G-sepharose as an absorbent. Resins were washed with NETN containing 100 mM NaCl, and bound proteins were detected by western blotting with antibodies to PR (C-20) or His-PSF (H-15). (B) Western blots of PSF (left) and PR (right) in immunoprecipitates of control mouse IgG or mouse anti-PR (AB52) or anti-PSF (B92) antibody from extracts of T47D cells. […] Luciferase activity was measured and normalized by β-galatosidase activity. […]
For immunoprecipitation of the endogenous PR and PSF, T47D cells cultured in 150 mm dishes were lysed in 800 μl NETN buffer containing 150 mM NaCl plus protease inhibitor cocktail. […] Gels were treated with Enhancer (NEN, Boston, US) dried and analyzed by autoradiography. • Cell culture and transient transfection: SHM cells and 293T cells were maintained in DMEM plus 5% FCS (Sigma) as described before (22). […] Luciferase activity was determined by using the luciferin reagent (Promega) according to manufacture's protocol. […]

| Molecule | binding result [1] | luciferase activity on co-transfection with VP16-PRA and VP16-PRB (G5-Luc reporter; G5-Luc, ligand-independent) | reduction in luciferase activity compared to pM empty vector (G5-Luc reporter; co-transfected with G5-Luc) [%] |
| --- | --- | --- | --- |
| His-PSF (6xHis-tagged full length human PSF, amino acid 1-707) (other, Expressed in 293T or SHM cells (co-immunoprecipitation, reporter assays) or translated in rabbit reticulocyte lysate with ^35S methionine (GST pulldown); 1 only as 'e.g.' of wild type PSF; also called His tagged PSF; His tagged PSF1-707; not shown: N-terminal 6xHis tag of vector pcDNA3.1 6xHis) MSRDRFRSRGGGGGGFHRRGGGGGRGGLHDFRSPPPGMGLNQNRGPMGPGPGQSGPKPPIPPPPPHQQQQQPPPQQPPPQQPPPHQPPPHPQPHQQQQPPPPPQDSSKPVVAQGPGPAPGVGSAPPASSSAPPATPPTSGAPPGSGPGPTPTPPPAVTSAPPGAPPPTPPSSGVPTTPPQAGGPPPPPAAVPGPGPGPKQGPGPGGPKGGKMPGGPKPGGGPGLSTPGGHPKPPHRGGGEPRGGRQHHPPYHQQHHQGPPPGGPGGRSEEKISDSEGFKANLSLLRRPGEKTYTQRCRLFVGNLPADITEDEFKRLFAKYGEPGEVFINKGKGFGFIKLESRALAEIAKAELDDTPMRGRQLRVRFATHAAALSVRNLSPYVSNELLEEAFSQFGPIERAVVIVDDRGRSTGKGIVEFASKPAARKAFERCSEGVFLLTTTPRPVIVEPLEQLDDEDGLPEKLAQKNPMYQKERETPPRFAQHGTFEYEYSQRWKSLDEMEKQQREQVEKNMKDAKDKLESEMEDAYHEHQANLLRQDLMRRQEELRRMEELHNQEMQKRKEMQLRQEEERRRREEEMMIRQREMEEQMRRQREESYSRMGYMDPRERDMRMGGGGAMNMGDPYGSGGQKFPPLGGGGGIGYEANPGVPPATMSGSMMGSDMRTERFGQGGAGPVGGQGPRGMGPGTPAGYGRGREEYEGPNKKPRF | binds | – | – |
| pM-PSF: PSF fused to C-terminus of Gal4-DBD in pM vector (protein) MKLLSSIEQACDICRLKKLKCSKEKPKCAKCLKNNWECRYSPKTKRSPLTRAHLTEVESRLERLEQLFLLIFPREDLDMILKMDSLQDIKALLTGLFVQDNVNKDAVTDRLASVETDMPLTLRQHRISATSSSEESSNKGQRQLTVSMSRDRFRSRGGGGGGFHRRGGGGGRGGLHDFRSPPPGMGLNQNRGPMGPGPGQSGPKPPIPPPPPHQQQQQPPPQQPPPQQPPPHQPPPHPQPHQQQQPPPPPQDSSKPVVAQGPGPAPGVGSAPPASSSAPPATPPTSGAPPGSGPGPTPTPPPAVTSAPPGAPPPTPPSSGVPTTPPQAGGPPPPPAAVPGPGPGPKQGPGPGGPKGGKMPGGPKPGGGPGLSTPGGHPKPPHRGGGEPRGGRQHHPPYHQQHHQGPPPGGPGGRSEEKISDSEGFKANLSLLRRPGEKTYTQRCRLFVGNLPADITEDEFKRLFAKYGEPGEVFINKGKGFGFIKLESRALAEIAKAELDDTPMRGRQLRVRFATHAAALSVRNLSPYVSNELLEEAFSQFGPIERAVVIVDDRGRSTGKGIVEFASKPAARKAFERCSEGVFLLTTTPRPVIVEPLEQLDDEDGLPEKLAQKNPMYQKERETPPRFAQHGTFEYEYSQRWKSLDEMEKQQREQVEKNMKDAKDKLESEMEDAYHEHQANLLRQDLMRRQEELRRMEELHNQEMQKRKEMQLRQEEERRRREEEMMIRQREMEEQMRRQREESYSRMGYMDPRERDMRMGGGGAMNMGDPYGSGGQKFPPLGGGGGIGYEANPGVPPATMSGSMMGSDMRTERFGQGGAGPVGGQGPRGMGPGTPAGYGRGREEYEGPNKKPRF | – | dramatic increase of luciferase activity | 70 |
